Kd data for two molecules are collected here from article PMC2928128.

In this experiment the target is GST-CDH23Δexon68ΔITEL (residues 847-1075). Description: SPR. (In general: In SPR one partner is held on a chip, and binding of the other changes the refractive index at the surface.)

B1: harmonin-a Nter-PDZ1 fragment (residues 1-203) (domain or fragment)
chain: MDRKVAREFRHKVDFLIENDAEKDYLYDVLRMYHQTMDVAVLVGDLKLVINEPNRLPLFDAIRPLIPLKHQVEYDQLTPRRSRKLKEVRLDRLHPEGLGLSVRGGLEFGCGLFISHLIKGGQADSVGLQVGDEIVRINGYSISSCTHEEVINLIRTKKTVSIKVRHIGLIPVKSSPEESLKWQYVDQFVSESGGVRGGLGSPG
By Kd is commonly meant the constant that tells how readily two partners part at equilibrium. Read a low Kd as higher affinity. The molecule B1 returned a Kd of 58 nM.

B2: harmonin-a Nter domain (residues 1-79) (domain or fragment)
chain: MDRKVAREFRHKVDFLIENDAEKDYLYDVLRMYHQTMDVAVLVGDLKLVINEPNRLPLFDAIRPLIPLKHQVEYDQLTP
In turn, B2 gave a Kd of more than 5000 nM.
